This is an account of results in patent US20240270866A1 (Alector, published 2024).

Assay [1] deals with T1, human SIRPA Fc fusion antigen (human, UniProt P78324 31-373).
T1 construct: heterologous signal peptide; not shown: human IgG1 Fc
Nature of the assay: ForteBio Fab monovalent.

Assay [2] addresses T2, biotinylated human SIRPA (monomer) (human, UniProt P78324 31-373, limits assumed, biotinylated).
T2 construct: monomer made by IdeS cleavage of a SIRPA Fc fusion; also called recombinant human SIRPA
In words: MSD-SET, Fab, equilibrium.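 Further: solution equilibrium titration, free antigen captured on antibody-coated MSD plates and detected by electrochemiluminescence with labeled streptavidin, percent free antigen versus titrated antibody fit to quadratic model for KD.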
Description: Antibodies (20 nM in PBS) were coated onto standard bind MSD-ECL plates overnight at 4° C. or at room temperature for 30 min. Plates were then blocked with 1% BSA for 30 min with shaking at 700 rpm, followed by three washes with wash buffer (PBSF+0.05% Tween 20). SET samples were applied and incubated on the plates for 150s with shaking at 700 rpm followed by one wash. Antigen captured on a plate was detected with 250 ng/ml sulfotag-labeled streptavidin in PBSF by incubation on the plate for 3 min. The plates were washed three times with wash buffer and then read on the MSD Sector Imager 2400 instrument using 1× Read Buffer T with surfactant. The percent free antigen was plotted as a function of titrated antibody in Prism and fit to a quadratic equation to extract the KD. To improve throughput, liquid handling robots were used throughout MSD-SET experiments, including SET sample preparation.

In assay [3] the target is T3, mouse SIRPA overexpressed on CHO cells (mouse, UniProt P97797 32-513).
T3 construct: also called CHO-muSIRPA
T3 sequence: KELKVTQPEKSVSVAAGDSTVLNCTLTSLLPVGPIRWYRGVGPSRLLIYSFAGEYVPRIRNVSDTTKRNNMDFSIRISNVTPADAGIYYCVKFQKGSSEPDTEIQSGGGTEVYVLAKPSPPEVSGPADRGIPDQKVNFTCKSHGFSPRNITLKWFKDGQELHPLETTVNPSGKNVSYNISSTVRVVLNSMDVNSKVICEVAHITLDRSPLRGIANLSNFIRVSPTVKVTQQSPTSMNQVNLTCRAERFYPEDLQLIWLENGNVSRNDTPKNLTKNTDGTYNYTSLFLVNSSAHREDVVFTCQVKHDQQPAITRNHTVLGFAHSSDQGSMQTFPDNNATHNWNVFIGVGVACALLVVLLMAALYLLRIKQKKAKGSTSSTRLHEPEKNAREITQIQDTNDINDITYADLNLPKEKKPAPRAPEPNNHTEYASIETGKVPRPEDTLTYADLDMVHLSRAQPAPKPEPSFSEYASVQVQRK
In words: flow, CHO-muSIRPA.
Description: Initial characterization of anti-SIRPA antibodies of the present disclosure involved determining their ability to bind cell lines overexpressing human or mouse SIRPA. Cells were harvested, plated at 10⁶/ml in a 96 well plate, washed, and incubated in 100 ul PBS containing 1 ug/ml Mab for 1 hour in ice. Cells were then washed twice and incubated in 100 ul PBS containing 5 ug/ml PE-conjugated secondary antibody for 30 minutes in ice. Cells were washed twice in cold PBS and acquired on a BD FACS Canto. Data analysis and calculation of mean fluorescence intensity (MFI) values or % positive cells was performed with FlowJo® (TreeStar) software version 10.0.7.

In assay [4] the target is T4, Mouse SIRPA D1 Fc (mouse, UniProt P97797 32-150, limits assumed).
T4 sequence: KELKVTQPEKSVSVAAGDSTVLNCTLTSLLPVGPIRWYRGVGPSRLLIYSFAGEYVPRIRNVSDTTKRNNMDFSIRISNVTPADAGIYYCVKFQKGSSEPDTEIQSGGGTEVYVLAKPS
Nature of the assay: ForteBio IgG avid.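 Further: antibody IgG captured on AHQ biosensors, then 100 nM Fc-fused SIRP antigen applied for 3 min, followed by 3 min buffer dissociation, kinetics fitted to a 1:1 model.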

The target of assay [5] is Human SIRPb D1 Fc (human, UniProt O00241 30-148, limits assumed). In words: ForteBio IgG avid.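 Further: antibody IgG captured on AHQ biosensors, then 100 nM Fc-fused SIRP antigen applied for 3 min, followed by 3 min buffer dissociation, kinetics fitted to a 1:1 model.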
For assay [6], the target named is T5, Human SIRPA D1 Fc (human, UniProt P78324 32-137).
T5 construct: not shown: human IgG1 Fc
Nature of the assay: ForteBio IgG avid.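 Further: antibody IgG captured on AHQ biosensors, then 100 nM Fc-fused SIRP antigen applied for 3 min, followed by 3 min buffer dissociation, kinetics fitted to a 1:1 model.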

For assay [7], the target named is T6, human SIRPA overexpressed on CHO cells (human, UniProt P78324 31-504).
T6 construct: also called CHO-huSIRPA
Nature of the assay: flow, CHO-huSIRPA.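 Further: Anti-SIRPA antibodies applied at 1 µg/mL for 1 h on ice, binding read by flow cytometry using a PE-labelled secondary antibody.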

Assay [8] deals with T3, mouse SIRPA overexpressed on CHO cells. In words: flow, CHO-muSIRPA. This is another data set of the same source.

Sequence of Human SIRPb D1 Fc (O00241 30-148 limits assumed): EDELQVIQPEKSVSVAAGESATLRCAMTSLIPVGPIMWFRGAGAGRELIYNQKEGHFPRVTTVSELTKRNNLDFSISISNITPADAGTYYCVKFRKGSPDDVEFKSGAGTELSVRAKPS

B1: SA-19-73 Fab (Fab, V domains shown)
VH: QVQLVESGGGLVQPGGSLRLSCAASGFTFSSYAMHWVRQAPGKGLEWVAGILYDGSNKYYADSVKGRFTISRDNSKNTLYLQMNSLRAEDTAVYYCANSDTKYTLGFAFDIWGQGTMVTVSS
VL: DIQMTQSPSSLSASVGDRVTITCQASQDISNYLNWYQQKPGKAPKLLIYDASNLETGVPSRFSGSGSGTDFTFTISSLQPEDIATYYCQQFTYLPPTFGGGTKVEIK
notes: papain Fab
For B1, the Kd in assay [1] stood at 1.62 nM; in assay [2], 0.18 nM.

B2: SA-19-75 Fab (Fab, V domains shown)
VH: QVQLVESGGGVVQPGRSLRLSCAASGFTFSSYGMHWVRQAPGKGLEWVAVIAYDGSNKLYADSVKGRFTISRDNSKNTLYLQMNSLRAEDTAVYYCALMRTKYTLGFAFDIWGQGTMVTVSS
VL: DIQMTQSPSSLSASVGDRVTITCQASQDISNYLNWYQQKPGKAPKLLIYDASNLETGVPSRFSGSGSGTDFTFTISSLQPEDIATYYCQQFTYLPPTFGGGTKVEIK
notes: papain Fab
As to B2, the figures for the Kd in assay [1] and in assay [2] were 1.67 nM and 0.42 nM, respectively.

B3: SA-19-82 Fab (Fab, V domains shown)
VH: QVQLVESGGGVVQPGRSLRLSCAASGFTFSSYAMHWVRQAPGKGLEWVAGILYDGSNKYYADSVKGRFTISRDNSKNTLYLQMNSLRAEDTAVYYCARHVLKYTLGFAFDIWGQGTMVTVSS
VL: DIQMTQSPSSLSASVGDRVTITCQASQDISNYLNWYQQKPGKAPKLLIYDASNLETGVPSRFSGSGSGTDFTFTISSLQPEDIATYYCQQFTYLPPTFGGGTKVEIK
notes: papain Fab
Regarding B3, the dissociation constant Kd in assay [1] amounted to 1.44 nM; in assay [2] it was 0.27 nM.

B4: SA-19-80 Fab (Fab, V domains shown)
VH: EVQLLESGGGVVQPGRSLRLSCAASGFTFSSYGMHWVRQAPGKGLEWVAGILYDGSNKYYADSVKGRFTISRDNSKNTLYLQMDGLRAEDTAVYYCARHSVKYTLGFAFDIWGQGTMVTVSS
VL: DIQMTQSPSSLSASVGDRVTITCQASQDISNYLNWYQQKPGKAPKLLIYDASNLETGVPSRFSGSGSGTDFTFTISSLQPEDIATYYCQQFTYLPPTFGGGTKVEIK
notes: papain Fab
For B4, the Kd in assay [1] came to 2.26 nM; in assay [2], 0.22 nM.

B5: SA-19-79 Fab (Fab, V domains shown)
VH: QVQLVESGGGVVQPGRSLRLSCAASGFTFSSYGMHWVRQAPGKGLEWVAVIAYDGSNKIYADSVKGRFTISRDNSKNTLYLQMNSLRAEDTAVYYCATTDTKYTLGFAFDIWGQGTMVTVSS
VL: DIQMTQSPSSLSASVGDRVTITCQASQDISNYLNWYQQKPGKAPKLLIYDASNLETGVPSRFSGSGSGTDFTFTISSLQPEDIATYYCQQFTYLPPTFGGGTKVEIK
notes: papain Fab
Regarding B5, the values for the Kd in assay [1] and in assay [2] were 0.689 nM and 0.14 nM, respectively.

B6: SA-19-77 Fab (Fab, V domains shown)
VH: QVQLVESGGGVVQPGRSLRLSCAASGFTFSSYGMAWVRQAPGKGLEWVAQILYDGSNEYYADSVKGRFTISRDNSKNTLYLQMNSLRAEDTAVYYCARDLTKYTLGFAFDIWGQGTMVTVSS
VL: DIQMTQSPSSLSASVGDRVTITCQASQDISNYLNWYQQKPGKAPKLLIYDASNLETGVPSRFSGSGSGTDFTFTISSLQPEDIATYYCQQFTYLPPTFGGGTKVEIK
notes: papain Fab
As for B6, the Kd is 3.61 nM in assay [1] and 1.2 nM in assay [2].

B7: SA-19-78 Fab (Fab, V domains shown)
VH: QVQLVESGGGVVQPGRSLRLSCAASGFTFSSYGMHWVRQAPGKGLEWVAVIAYDGSNKLYADSVKGRFTISRDNSKNTLYLQMDSLRAEDTAVYYCATSDTKYTLGFAFDIWGQGTMVTVSS
VL: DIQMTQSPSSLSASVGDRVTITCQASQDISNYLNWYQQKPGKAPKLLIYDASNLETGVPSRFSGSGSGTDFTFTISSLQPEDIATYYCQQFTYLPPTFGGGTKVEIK
notes: papain Fab
Turning to B7, the Kd in assay [1] was 1.53 nM; in assay [2] it was 0.084 nM.

B8: SA-60 (antibody, V domains shown)
VH: EVQLVESGGGLVQPGGSLRLSCAASGFTFSSYSMNWVRQAPGKGLEWVSYISSSSSTIYYADSVKGRFTISRDNAKNSLYLQMNSLRAEDTAVYYCARTHKHFDYGMDVWGQGTTVTVSS
VL: EIVLTQSPATLSLSPGERATLSCRASQSVSSYLAWYQQKPGQAPRLLIYDSSNRATGIPARFSGSGSGTDFTLTISSLEPEDFAVYYCQDRSNLPWTFGGGTKVEIK
notes: IgG
As for B8, the entries for the “relative MFI” value in assay [3] and in assay [7] were 0.539 fold over background and 4.85 fold over background, respectively. The binding result is given as “no binding (tested: 100 nM)” in assay [4], “no binding (tested: 100 nM)” in assay [5] and “no binding (tested: 1 ug/ml)” in assay [8]. This molecule also had a Kd in assay [6] of 22.2 nM.

B9: SA-3 (antibody, V domains shown)
VH: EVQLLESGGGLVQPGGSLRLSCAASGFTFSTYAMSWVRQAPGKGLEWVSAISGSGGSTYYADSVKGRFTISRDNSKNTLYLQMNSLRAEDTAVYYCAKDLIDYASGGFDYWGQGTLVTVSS
VL: EIVLTQSPATLSLSPGERATLSCRASQSVSSYLAWYQQKPGQAPRLLIYDASNRATGIPARFSGSGSGTDFTLTISSLEPEDFAVYYCQQHDFWPPTFGGGTKVEIK
notes: IgG
As to B9, the figures for the “relative MFI” value in assay [3] and in assay [7] were 0.518 fold over background and 0.595 fold over background, respectively. For the same molecule, the binding result is “no binding (tested: 100 nM)” in assay [4], “no binding (tested: 100 nM)” in assay [5] and “no binding (tested: 1 ug/ml)” in assay [8]. The molecule also yielded a Kd in assay [6] of 21.4 nM.

B10: SA-4 (antibody, V domains shown)
VH: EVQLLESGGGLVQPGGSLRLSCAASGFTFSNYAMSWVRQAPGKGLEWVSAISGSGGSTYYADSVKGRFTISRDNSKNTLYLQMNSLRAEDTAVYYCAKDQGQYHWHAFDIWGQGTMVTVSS
VL: EIVLTQSPATLSLSPGERATLSCRASQSVSSYLAWYQQKPGQAPRLLIYDASNRATGIPARFSGSGSGTDFTLTISSLEPEDFAVYYCQQDSNFPFTFGGGTKVEIK
notes: IgG
Take B10: the figures for the “relative MFI” value in assay [3] and in assay [7] were 0.491 fold over background and 0.87 fold over background, respectively. Also, the values for the binding result in assay [4], in assay [5] and in assay [8] were “no binding (tested: 100 nM)”, “no binding (tested: 100 nM)” and “no binding (tested: 1 ug/ml)”, respectively. The molecule also gave a dissociation constant Kd in assay [6] of 30.2 nM.

B11: SA-62 (antibody, V domains shown)
VH: EVQLVESGGGLVQPGGSLRLSCAASGFTFSSYSMNWVRQAPGKGLEWVSYISSSSSTIYYADSVKGRFTISRDNAKNSLYLQMNSLRAEDTAVYYCARTHKHFDYGMDVWGQGTTVTVSS
VL: DIQMTQSPSSLSASVGDRVTITCQASQDIANYLNWYQQKPGKAPKLLIYDASNLETGVPSRFSGSGSGTDFTFTISSLQPEDIATYYCQQYVNYWTFGGGTKVEIK
notes: IgG
Take B11: the “relative MFI” value amounted to 0.557 fold over background in assay [3] and 7.09 fold over background in assay [7]. In addition, the binding result in assay [4] is “no binding (tested: 100 nM)”; in assay [5] it was “no binding (tested: 100 nM)”; in assay [8], “no binding (tested: 1 ug/ml)”. The Kd in assay [6] amounted to 16.5 nM.

B12: SA-2 (antibody, V domains shown)
VH: QVQLVESGGGVVQPGRSLRLSCAASGFTFSSYGMHWVRQAPGKGLEWVAVISYDGSNKYYADSVKGRFTISRDNSKNTLYLQMNSLRAEDTAVYYCAKDLGGGSGGYATSDYYYGMDVWGQGTTVTVSS
VL: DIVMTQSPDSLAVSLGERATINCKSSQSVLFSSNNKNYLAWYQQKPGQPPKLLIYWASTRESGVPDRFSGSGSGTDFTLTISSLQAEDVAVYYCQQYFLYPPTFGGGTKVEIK
notes: IgG
For the molecule B12, the “relative MFI” value in assay [3] stood at 0.527 fold over background; in assay [7], 98.3 fold over background. The binding result is reported as “no binding (tested: 100 nM)” in assay [4], “no binding (tested: 100 nM)” in assay [5] and “no binding (tested: 1 ug/ml)” in assay [8]. In assay [6], this molecule yielded a Kd of 2.44 nM.

B13: SA-1 (antibody, V domains shown)
VH: EVQLVESGGGLVQPGRSLRLSCAASGFTFGDYAMHWVRQAPGKGLEWVSGISWNSGSIGYADSVKGRFTISRDNAKNSLYLQMNSLRAEDTALYYCAKDAPYVGLDLWGRGTLVTVSS
VL: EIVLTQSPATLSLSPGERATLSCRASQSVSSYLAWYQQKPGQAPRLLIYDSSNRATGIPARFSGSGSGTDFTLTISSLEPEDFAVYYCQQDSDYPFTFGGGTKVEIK
notes: IgG
As to B13, the “relative MFI” value in assay [3] was found to be 0.545 fold over background; in assay [7], 1.47 fold over background. Moreover, the binding result in assay [4] is listed as “no binding (tested: 100 nM)”; in assay [5] it was “no binding (tested: 100 nM)”; in assay [8], “no binding (tested: 1 ug/ml)”. In assay [6], this molecule displayed a Kd of 20 nM.

B14: SA-58 (antibody, V domains shown)
VH: QLQLQESGPGLVKPSETLSLTCTVSGGSISSSSYAWGWIRQPPGKGLEWIGSIYYSGSTYYNPSLKSRVTISVDTSKNQFSLKLSSVTAADTAVYYCARLPMGCGSGMDVWGQGTTVTVSS
VL: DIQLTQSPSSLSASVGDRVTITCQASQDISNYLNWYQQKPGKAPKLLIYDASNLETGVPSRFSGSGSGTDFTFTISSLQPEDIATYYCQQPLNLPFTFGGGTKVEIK
notes: IgG
As to B14, the “relative MFI” value in assay [3] came to 0.738 fold over background; in assay [7], 50.8 fold over background. The binding result is recorded as “no binding (tested: 100 nM)” in assay [4], “no binding (tested: 100 nM)” in assay [5] and “no binding (tested: 1 ug/ml)” in assay [8]. In assay [6], this molecule gave a dissociation constant (Kd) of 4.31 nM.

B15: SA-47 (antibody, V domains shown)
VH: QVQLVQSGAEVKKPGASVKVSCKASGYTFTSYYMHWVRQAPGQGLEWMGIINPSGGSTSYAQKFQGRVTMTRDTSTSTVYMELSSLRSEDTAVYYCAREVGVSGWEITYGMDVWGQGTTVTVSS
VL: DIQMTQSPSSVSASVGDRVTITCRASQGISSWLAWYQQKPGKAPKLLIYAASSLQSGVPSRFSGSGSGTDFTLTISSLQPEDFATYYCQQISSYPITFGGGTKVEIK
notes: IgG
Consider B15, for which the results for the “relative MFI” value in assay [3] and in assay [7] were 0.479 fold over background and 11.3 fold over background, respectively. For the same molecule, the binding result in assay [4] was “no binding (tested: 100 nM)”; in assay [5], “no binding (tested: 100 nM)”; in assay [8], “no binding (tested: 1 ug/ml)”. The molecule also registered a Kd in assay [6] of 15.4 nM.

B16: SA-59 (antibody, V domains shown)
VH: QVQLQESGPGLVKPSETLSLTCTVSGGSISSYYWSWIRQPPGKGLEWIGSIYYSGSTNYNPSLKSRVTISVDTSKNQFSLKLSSVTAADTAVYYCARSGGSYSYLDVWGQGTMVTVSS
VL: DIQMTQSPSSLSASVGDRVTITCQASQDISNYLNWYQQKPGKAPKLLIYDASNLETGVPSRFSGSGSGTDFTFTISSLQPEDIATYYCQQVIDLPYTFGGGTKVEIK
notes: IgG
B16: the results for the “relative MFI” value in assay [3] and in assay [7] were 0.53 fold over background and 0.63 fold over background, respectively. The binding result in assay [4] is on record as “no binding (tested: 100 nM)”; in assay [5], “no binding (tested: 100 nM)”; in assay [8], “no binding (tested: 1 ug/ml)”. In assay [6], this molecule displayed a Kd of 23.6 nM.
